Experimental data reported in US20040120943.

Biological target: rabbit thrombomodulin (UniProt Q8HZ48)

variant thrombin W215A/E217A (WE)
activity toward protein C on addition of thrombomodulin: the WE variant thrombin recovers almost its full activity toward protein C upon binding to thrombomodulin
